From patent US20050153872A1, “Methods and compositions for the treatment of infection” (priority 2004, published 2005)

How the values were obtained:
[1] = tested on: vancomycin-sensitive Enterococcus ATCC29212; settings: 3 ug/ml; ATCC 29212 cells
ATCC 700802 VRE cells [2] = experiment: Electron micrographs of bactericidal effects of Ph-EF; type: cell-based, Enterococcus; settings: Ph-EF 10 ug/ml 0.5 and 2 hr; Ph-SA 10 ug/ml 2 hr; vancomycin 20 ug/ml 2 hr
Procedure: Electron Microraphs of Bactericidal Effects of Ph-EF Against ATCC 700802 VRE Cells (1% Phosphotungstic Acid, 15.000×).
Bactericidal effects of ph-EF were tested and monitored by electron microscopy. FIG. 16 depicts electron micrographs of (a) untreated cells; (b) and (c) cells treated with Ph-EF (10 ug/ml) for 0.5 hr; (d) untreated cells for 2 hr; (e) cells treated by Ph-SA (10 ug/ml) for 2 hr; (f) cells treated with vancomycin (20 ug/ml) for 2 hr; (g) and (h) cells treated with Ph-EF (10 ug/ml) for 2 hrs.

[3] = tested on: Vancomycin-resistant Enterococcus ATCC 700802
ATCC 700802 VRE cells [4] = experiment: Ph-EF protection of ATCC 700802 infected mice; type: in vivo; settings: for Death distribution in hours 24 h / Death distribution in hours 48 h / Death distribution in hours 72 h / Death distribution in hours 96 h / Death distribution in hours 120 h / Death distribution in hours 144 h / Death distribution in hours 168 h / Number of Death: 5 animals
Procedure: To assess in vivo effects of Ph-EF, mice were injected with a fatal dosage of ATCC 700802 VRE cells intraperitoneally. […] Mice were inspected every 24 hours for 7-14 days. Dead mice would be counted as positive results.

B1: Ph-EF: Colicin Ia linked to the N-terminus of the E. facaelis pheromone cCF10 (protein)
chain: SDPVARGITNPGAESLGYDSDGHEIMAVASPIYVASNPPRVASPVFHGTPPAWSSFGNKTIWGGNEWVASPDSPTRSDIEKRDKEITAYKNTLSAQQKENENKRTEAGKRLSAAIAAREKDENTLKTLRAGNADAADITRQEFRLLQAELREYGFRTEIAGYDALRLHTESRMLFADADSLRISPREARSLIEQAEKRQKDAQNADKKAADMLAEYERRKGILDTRLSELEKNGGAALAVLDAQQARLLGQQTRNDRAISEARNKLSSVTESLNTARNALTRAEQQLTQQKNTPDGKTIVSPEKFPGRSSTNHSIVVSGDPRFAGTIKITTSAVIDNRANLNYLLSHSGLDYKRNILNDRNPVVTEDVEGDKKIYNAEVALAEWDKLRQRLLDARNKITSAESAVASNSARNNLSARTNEQKHANDALNALLKEKENIRNQLSGINQKIAEEKRKQDELKATKDAINFTTEFLKSVSEKYGAKAEQLAREMAGQAKGKKIRNVEEALKTYEKYRADINKKINAKDRAAIAAALESVKLSDISSNLNRFSRGLGYAGKFTSLADWITEFGKAVARGTENWRPLFVKTETIIAGNAATALVALALVFSILTGSALGIIGYGLLMAVTGALIDESLVEKANKFWGILVTLVFV
modifications: Colicin Ia linked to E. facaelis pheromone cCF10
[1]
  inhibition of cell growth: inhibited cell growth
ATCC 700802 VRE cells [2]
  morphological alteration in VRE cells (electron micrographs): substantial morphological alteration
[3]; 10 ug/ml, ATCC 700802
  inhibition of VRE cell growth: effectively inhibited VRE cell growth
[3]; Ph-EF 70,000 daltons vs vancomycin 1456 daltons
  bactericidal effect relative to vancomycin on a molar basis: almost one hundred times greater
ATCC 700802 VRE cells [4]; 5 mg/kg intravenously
  Death distribution in hours 24 h: 0
  Death distribution in hours 48 h: 1
  Death distribution in hours 72 h: 0
  Death distribution in hours 96 h: 0
  Death distribution in hours 120 h: 0
  Death distribution in hours 144 h: 0
  Death distribution in hours 168 h: 0
  Number of Death: 1
ATCC 700802 VRE cells [4]; 10 mg/kg intravenously
  Death distribution in hours 24 h: 0
  Death distribution in hours 48 h: 0
  Death distribution in hours 72 h: 0
  Death distribution in hours 96 h: 0
  Death distribution in hours 120 h: 0
  Death distribution in hours 144 h: 0
  Death distribution in hours 168 h: 0
  Number of Death: 0
ATCC 700802 VRE cells [4]; ATCC 700802 VRE i.p., agent i.v.
  protection against infection in mice: effectively prevent Enterococcus infection in mice
